Experimental data from patent US20120149881A1 (Genentech, published 2012).
Residue numbers refer to the chain shown, from its start. Values joined by “and” are separate entries in the source; they are usually repeats but may differ in a detail not shown here. Identical values can stand only once. One block for each binder: values may come before it.

Experiments:
[1] = target: T1, human IgE with the M1′ sequence (long form of membrane IgE) expressed on transduced BJAB or Daudi cells (human, UniProt P01854 116-546); assay: Scatchard Human M1' (nM), column Mean of exp. 1
T1 construct: Full-length heavy and light chains of the U266 IgE B cell receptor, retrovirally expressed; also called IgE/M1′; IgE-M1′
T1 sequence (P01854 116-546 I515L limits assumed): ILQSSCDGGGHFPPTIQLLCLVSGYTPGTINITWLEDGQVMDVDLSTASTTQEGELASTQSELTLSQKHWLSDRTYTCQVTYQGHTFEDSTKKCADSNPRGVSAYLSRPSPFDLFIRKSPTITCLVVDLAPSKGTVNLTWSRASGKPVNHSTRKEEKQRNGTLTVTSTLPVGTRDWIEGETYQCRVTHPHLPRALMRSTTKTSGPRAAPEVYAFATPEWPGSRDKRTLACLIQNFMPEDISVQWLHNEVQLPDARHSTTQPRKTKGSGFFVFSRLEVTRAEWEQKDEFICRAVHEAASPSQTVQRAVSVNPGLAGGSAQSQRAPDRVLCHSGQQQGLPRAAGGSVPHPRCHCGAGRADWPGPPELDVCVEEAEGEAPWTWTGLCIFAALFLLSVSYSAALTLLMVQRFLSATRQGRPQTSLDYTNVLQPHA
Method: In addition to relative affinity determinations by antibody titration and FACs detection, we also determined affinities of selected anti-MP antibodies to BJAB cell lines expressing IgE long form using Scatchard analysis. BJAB-Long cells were prepared for binding in cold Binding buffer composed of base media, with 10 mM HEPES pH 7.4, and 2% FBS as well as 40 μg/ml human IgG. Cells were diluted to a concentration of 1.7×10⁶ cells/ml, and kept on ice until added to the assay. The antibodies were iodinated with Iodogen method. Various concentrations of unlabelled antibody were prepared in triplicate, using a 1:2 dilution starting with the saturation concentration and ending at a concentration of zero, with a total of 14 concentrations. […] Each sample was then collected and filtered on a membrane, washed at least 3 times with binding buffer, allowed to dry and then measured for 1 minute using a Perkin Elmer Wizard 1470 Auto Gamma Counter.
The BJAB or Daudi cells expressing various forms of IgE with or without M1′ (Human, Rhesus, Cyno) were prepared for binding in cold Binding buffer composed of base media, with 10 mM HEPES pH 7.4, and 2% FBS as well as 40 ug/ml human IgG. […] Each sample is then collected and filtered on membrane, washed at least 3 times with binding buffer, allowed to dry and then counted for 1 minute using Perkin Elmer Wizard 1470 Auto Gamma Counter.

[2] = target: T1, human IgE with the M1′ sequence (long …); assay: Scatchard analysis on cells expressing human IgE/M1′
Method: (§1) The BJAB or Daudi cells expressing various forms of IgE with or without M1′ (Human, Rhesus, Cyno) were prepared for binding in cold Binding buffer composed of base media, with 10 mM HEPES pH 7.4, and 2% FBS as well as 40 ug/ml human IgG. Cells are diluted to concentration of 1.7×10⁶ cells/ml, and kept on ice until they are added to the assay. The proteins/antibodies are iodinated with the Iodogen method. Various concentrations of cold protein are prepared in triplicate, using a 1:2 dilution starting with the saturation concentration and ending at a concentration of zero, with a total of 14 concentrations. Hot protein of a single concentration is added to all dilutions compete with the cold protein. Lastly the cells are added to the hot and cold protein mixture, 250,000 cells per sample were used. Assay is kept at 4° C. for 4 hours, shaking. Each sample is then collected and filtered on membrane, washed at least 3 times with binding buffer, allowed to dry and then counted for 1 minute using Perkin Elmer Wizard 1470 Auto Gamma Counter.

[3] = target: T2, M1′ peptide 8 (human); assay: ELISA on coated antigen, relative OD450/650
T2 peptide: PRAAGGSVPHPRCH
Method: (§2) 15 peptides were generated spanning the sequence surrounding and including human M1′ (Clifford Quan) (FIG. 5A). Peptides were resuspended in either dH20 or 50% DMSO. […] 0.05% Tween-20, 10 ppm Proclin., 0.2% BgG, 0.25% Chaps, 5 mM EDTA, 0.35M NaCl]. […] Plates were then incubated for 2 hours at room temperature. Murine antibody plates were washed 3 times and then anti-mouse IgG1-Biotin (BD Biosciences (A85-1) #553441) was added (1:10,000, 100 μl per well) and incubated for 1 hour at RT. Following 3 washes, SA-HRP (BD Biosciences #554066) was added (1:20,000, 100 μl per well) and incubated for 1 hour. Human IgG1 antibody plates were washed as before and anti-hulgG.Fc-HRP (Jackson ImmunoResearch (#109-036-098)) was added (1:10,000, 100 μl per well) and incubated for 1 hour at RT. Once secondary incubations were complete, plates were washed 6 times and TMB substrate (BD OptEIA #555214) was added (100 μl per well). The substrate-HRP reaction was stopped with 1M H3PO4 after ˜4 minutes. Plates were then read at 450/650. Data was represented as relative OD (OD₄₅₀/CD650).

[4] = target: T3, M1′ peptide 7 (human); assay: ELISA on coated antigen, relative OD450/650
T3 peptide: GQQQGLPRAAGGSVP
Method: as §2

[5] = target: T1, human IgE with the M1′ sequence (long …); assay: Scatchard, iodinated antibody on IgE/M1′ cells
[6] = target: T1, human IgE with the M1′ sequence (long …); assay: Scatchard Human M1' (nM), overall Mean of two experiments
Method: as §1

[7] = target: T1, human IgE with the M1′ sequence (long …); assay: Scatchard Human M1' (nM), column Mean of exp. 2
Method: as §1

[8] = target: T4, human IgE CH3-CH4-M1′/Fc fusion protein (human); assay: SPR Biacore 2000, IgG immobilized, M1′-Fc analyte
T4 construct: also called M1′ (immobilized)
T4 sequence (chain, as listed by the source limits assumed): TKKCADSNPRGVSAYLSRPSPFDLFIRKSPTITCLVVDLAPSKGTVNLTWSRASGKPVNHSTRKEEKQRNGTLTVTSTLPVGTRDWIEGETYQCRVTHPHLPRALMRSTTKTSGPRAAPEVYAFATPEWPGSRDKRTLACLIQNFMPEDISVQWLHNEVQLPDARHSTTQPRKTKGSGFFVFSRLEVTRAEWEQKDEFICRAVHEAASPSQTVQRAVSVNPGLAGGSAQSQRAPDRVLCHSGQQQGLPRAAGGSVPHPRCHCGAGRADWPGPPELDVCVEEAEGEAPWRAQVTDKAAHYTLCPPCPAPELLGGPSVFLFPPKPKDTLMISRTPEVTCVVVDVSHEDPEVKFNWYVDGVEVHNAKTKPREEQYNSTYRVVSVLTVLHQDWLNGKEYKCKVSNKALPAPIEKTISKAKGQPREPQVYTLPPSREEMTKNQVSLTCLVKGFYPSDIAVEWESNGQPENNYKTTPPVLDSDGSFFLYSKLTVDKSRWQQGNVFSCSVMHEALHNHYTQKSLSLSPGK

[9] = target: T1, human IgE with the M1′ sequence (long …); assay: competitive ECL binding on BJAB-IgE/M1′ cells vs biotinylated 26A11 or 47H4, 1st IC50 column
[10] = target: T4, human IgE CH3-CH4-M1′/Fc fusion protein; assay: SPR Biacore A100, M1′ immobilized
[11] = target: T1, human IgE with the M1′ sequence (long …); assay: Scatchard Human M1' (nM), column Measured; iodinated antibody on cells expressing human IgE/M1'
Method: as §1

[12] = target: T5, M1' peptide 1; assay: ELISA on coated antigen, relative OD450/650
T5 peptide: ASPSQTVQRAVSVNP
Method: as §2

[13] = target: T6, M1' peptide 10; assay: ELISA on coated antigen, relative OD450/650
T6 construct: see f1
T6 peptide: HPRCHCGAGRADWPG
Method: as §2

[14] = target: T7, M1' peptide 3; assay: ELISA on coated antigen, relative OD450/650
T7 construct: see f1
T7 peptide: GLAGGSAQSQRAPDR
Method: as §2

[15] = target: T8, M1′ peptide 5 (human); assay: ELISA on coated antigen, relative OD450/650
T8 peptide: RAPDRVLCHSGQQQG
Method: as §2

[16] = target: T9, M1' peptide 13; assay: ELISA on coated antigen, relative OD450/650
T9 construct: see f1
T9 peptide: PPELDVCVEEAEGEA
Method: as §2

[17] = target: T10, M1' peptide 12; assay: ELISA on coated antigen, relative OD450/650
T10 construct: see f1
T10 peptide: ADWPGPPELDVCVEE
Method: as §2

[18] = target: T11, M1' peptide 11; assay: ELISA on coated antigen, relative OD450/650
T11 construct: see f1
T11 peptide: CGAGRADWPGPPELD
Method: as §2

[19] = target: T12, M1' peptide 15; assay: ELISA on coated antigen, relative OD450/650
T12 construct: see f1
T12 peptide: AEGEAPWTWTGLCIF
Method: as §2

[20] = target: T13, M1' peptide 2; assay: ELISA on coated antigen, relative OD450/650
T13 construct: see f1
T13 peptide: TVQRAVSVNPGLAGG
Method: as §2

[21] = target: T14, M1′ peptide 4 (human); assay: ELISA on coated antigen, relative OD450/650
T14 peptide: SAQSQRAPDRVLCHS
Method: as §2

[22] = target: T15, M1' peptide 9; assay: ELISA on coated antigen, relative OD450/650
T15 construct: see f1
T15 peptide: GGSVPHPRCHCGAGR
Method: as §2

[23] = target: T16, M1' peptide 6; assay: ELISA on coated antigen, relative OD450/650
T16 construct: see f1
T16 peptide: VLCHSGQQQGLPRAA
Method: as §2

[24] = target: T17, M1' peptide 14; assay: ELISA on coated antigen, relative OD450/650
T17 construct: see f1
T17 peptide: VCVEEAEGEAPWTWT
Method: as §2

[25] = target: T4, human IgE CH3-CH4-M1′/Fc fusion protein; assay: SPR Biacore 2000, M1′-Fc immobilized
[26] = target: T18, cyno IgE/M1′ expressed on transduced Daudi cells (human IgE/primate M1′ cassette, cynomolgus) (cynomolgus monkey); assay: Scatchard analysis on cells expressing cyno IgE/M1′
T18 construct: The construct is described as a 'human IgE/primate M1′ cassette'; also called Cyno M1′
T18 chain: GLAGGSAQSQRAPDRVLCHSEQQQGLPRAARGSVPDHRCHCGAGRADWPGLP

[27] = target: T19, rhesus IgE/M1′ expressed on transduced Daudi cells (human IgE/primate M1′ cassette, rhesus) (rhesus monkey); assay: Scatchard analysis on cells expressing rhesus IgE/M1′
T19 construct: The construct is described as a 'human IgE/primate M1′ cassette'; also called Rhesus M1′
T19 chain: T18 chain with R38H

[28] = target: T1, human IgE with the M1′ sequence (long …); assay: competitive ECL binding on BJAB-IgE/M1′ cells vs biotinylated 26A11 or 47H4, 2nd IC50 column
[29] = target: T1, human IgE with the M1′ sequence (long …); assay: Scatchard Human M1' (nM), column Mean of exp. 3
Method: as §1

[30] = target: T1, human IgE with the M1′ sequence (long …); assay: Scatchard Human M1' (nM), overall Mean of three experiments
Method: as §1

[31] = target: T1, human IgE with the M1′ sequence (long …); assay: number printed in the titration panel; FIG. 3M calls these numbers 'Scatchard Results' (BJAB-Long cells)
Method: In addition to relative affinity determinations by antibody titration and FACs detection, we also determined affinities of selected anti-MP antibodies to BJAB cell lines expressing IgE long form using Scatchard analysis. BJAB-Long cells were prepared for binding in cold Binding buffer composed of base media, with 10 mM HEPES pH 7.4, and 2% FBS as well as 40 μg/ml human IgG. Cells were diluted to a concentration of 1.7×10⁶ cells/ml, and kept on ice until added to the assay. The antibodies were iodinated with Iodogen method. Various concentrations of unlabelled antibody were prepared in triplicate, using a 1:2 dilution starting with the saturation concentration and ending at a concentration of zero, with a total of 14 concentrations. Iodinated antibody of a single concentration was added to all dilutions of the competitor unlabelled antibody. Lastly 250,000 BJAB-Long cells were added to each mixture of iodinated and unlabelled antibody. The samples were incubated at 4° C. for 4 hours, shaking. Each sample was then collected and filtered on a membrane, washed at least 3 times with binding buffer, allowed to dry and then measured for 1 minute using a Perkin Elmer Wizard 1470 Auto Gamma Counter.

- Kd [1]: 2.14 nM
- Kd [2]: 2.3 nM
- binding result [3]: binds
- binding result [4]: binds
- Kd [5]: 1.6 nM
- Kd [6]: 1.94 nM
- Kd [7]: 1.75 nM
- Kd [8]: 5.1 nM
- IC50 [9]: 12 nM
- Kd [10]: 0.3 nM
- Kd [11]: 1.68 nM and 2.59 nM and 1.2 nM
B1: murine anti-IgE/M1′ antibody 26A11 (antibody, V domains shown)
VH: EVQLQQSGPELVKPGASVKMSCKASGYTFTDYYMMWVKQSHGKSLEWIGDINPNNYDTSYNQKFKGKATLTVDKSSSTAYIQLNSLTSEDSAVYYCASKAYWGQGTLVTVSA
VL: DIQMTQTTSSLSASLGDRVTITCRSSQDISNSLNWYQQKPDGPVKLLIYSTSRLHSGVPSRFSGSGSGTDYSLTISNLEQEDLATYFCQQGHTLPWTFGGGTKVEIKR
notes: mIgG1 hybridoma antibody; also called mu26A11; 26A11 mIgG1

- Kd [2]: 1.5 nM
- binding result [12]: no binding
- binding result [13]: no binding
- binding result [14]: no binding
- binding result [15]: no binding
- binding result [3]: no binding
- binding result [4]: no binding
- binding result [16]: no binding
- binding result [17]: no binding
- binding result [18]: no binding
- binding result [19]: no binding
- binding result [20]: no binding
- binding result [21]: binds
- binding result [22]: no binding
- binding result [23]: no binding
- binding result [24]: no binding
- Kd [25]: 23 nM
- Kd [26]: 2.5 nM
- Kd [27]: 1.3 nM
- IC50 [28]: 60 nM
B2: humanized anti-IgE/M1′ antibody 47H4.v5 (antibody, V domains shown)
VH: EVQLVESGGGLVQPGGSLRLSCAASGFTFSDYGIAWVRQAPGKGLEWVAFISDLAYTIYYADTVTGRFTISRDNSKNTLYLQMNSLRAEDTAVYYCARDNWDAMDYWGQGTLVTVSS
VL: DIQMTQSPSSLSASVGDRVTITCRSSQSLVHNNANTYLHWYQQKPGKAPKLLIYKVSNRFSGVPSRFSGSGSGTDFTLTISSLQPEDFATYYCSQNTLVPWTFGQGTKVEIKR
notes: huIgG1; also called 47H4v5 huIgG1; 47H5 v.5

- Kd [2]: 0.79 nM
- binding result [21]: binds
- Kd [5]: 0.4 nM
- Kd [29]: 0.39 nM
- Kd [7]: 0.54 nM
- Kd [25]: 12 nM
- Kd [30]: 0.57 nM
- Kd [26]: 0.97 nM
- Kd [8]: 1.5 nM
- Kd [31]: 0.39 nM
- IC50 [9]: 62 nM
- Kd [10]: 5.6 nM
- Kd [27]: 0.77 nM
- IC50 [28]: 57 nM
B3: murine anti-IgE/M1′ antibody 47H4 (antibody, V domains shown)
VH: EVKLVESGGGLVQPGGSRKLSCAASGFTFSDYGMAWVRQAPGKGPEWVAFISDLAYTIYYADTVTGRFTISRENAKNTLYLEMSSLRSEDTALYYCARDNWDAMDYWGQGTSVTVSS
VL: DIVLTQTPLSLPVSLGDQASISCRSSQSLVHNNGNTYLHWYLQKPGQSPKLLIYKVSNRFSGVPDRFSGSGSGTDFTLKISRLEAEDLGVYFCSQNTLVPWTFGGGTKVEIKR
notes: mIgG1 hybridoma antibody; also called mu47H4; 47H4 mIgG1
